Where “and” joins values, the source holds several entries; their conditions need not be identical. Equal values may be shown once. Read-outs that look alike come from different tables or passages of the source.

From patent US20170355744A1 (published 2017) come the findings set out here.

For test [1], the target named is T1, CI-MPR receptor on human MPS IIIB fibroblasts (human), P11717. As to the kind of experiment: cell-based or functional assay.
Test [2] deals with T2, fragment of the IGFIIR involved with IGF-II binding (domains 10-13, named protein 1288) (UniProt P11717 1367-1989).
T2 construct: domain: domains 10-13; Coated on the plate at 0.5 ug/well; also called IGF2R
As to the kind of experiment: IGF2R competitive binding assay, displacement of 8 nM biotinylated IGF-II from plate-coated IGFIIR domains 10-13. Here is the method: To measure the ability of the Naglu fusion protein constructs to bind to the IGF-II receptor a competitive binding assay is carried out. A fragment of the IGFIIR involved with IGF-II binding (domains 10-13, named protein 1288) is coated onto 96-well plates. Biotinylated IGF-II is incubated with the receptor in the presence of increasing amounts of competitors: either control IGF-II (non-biotinylated), or fusion protein sample (containing an IGF-II-derived GILT epitope tag). Receptor-bound biotinylated IGF-II is detected with streptavidin conjugated to horseradish peroxidase (HRP) and a chemiluminescent HRP substrate. The ability of the fusion protein to inhibit binding of biotinylated IGF-II to the IGFIIR is calculated from inhibition curves and reported as an IC₅₀ value (concentration required to achieve 50% binding inhibition).
For the assay, IGFIIR is coated in a white Reacti-bind plate (Pierce, Cat#437111) at 0.5 μg/well in a volume of 100 μl (69.6 nM/per well) in coating buffer. The plate is sealed and incubated overnight at room temperature. The plate is then washed 3× with wash buffer, blocked with blocking buffer and then washed again 3× with wash buffer (300 μl/well).

Test [3] has as its target T1, CI-MPR receptor on human MPS IIIB …. Kind of test: cell-based or functional assay. The source holds these as a separate data set.

T1 sequence (P11717 41-2491): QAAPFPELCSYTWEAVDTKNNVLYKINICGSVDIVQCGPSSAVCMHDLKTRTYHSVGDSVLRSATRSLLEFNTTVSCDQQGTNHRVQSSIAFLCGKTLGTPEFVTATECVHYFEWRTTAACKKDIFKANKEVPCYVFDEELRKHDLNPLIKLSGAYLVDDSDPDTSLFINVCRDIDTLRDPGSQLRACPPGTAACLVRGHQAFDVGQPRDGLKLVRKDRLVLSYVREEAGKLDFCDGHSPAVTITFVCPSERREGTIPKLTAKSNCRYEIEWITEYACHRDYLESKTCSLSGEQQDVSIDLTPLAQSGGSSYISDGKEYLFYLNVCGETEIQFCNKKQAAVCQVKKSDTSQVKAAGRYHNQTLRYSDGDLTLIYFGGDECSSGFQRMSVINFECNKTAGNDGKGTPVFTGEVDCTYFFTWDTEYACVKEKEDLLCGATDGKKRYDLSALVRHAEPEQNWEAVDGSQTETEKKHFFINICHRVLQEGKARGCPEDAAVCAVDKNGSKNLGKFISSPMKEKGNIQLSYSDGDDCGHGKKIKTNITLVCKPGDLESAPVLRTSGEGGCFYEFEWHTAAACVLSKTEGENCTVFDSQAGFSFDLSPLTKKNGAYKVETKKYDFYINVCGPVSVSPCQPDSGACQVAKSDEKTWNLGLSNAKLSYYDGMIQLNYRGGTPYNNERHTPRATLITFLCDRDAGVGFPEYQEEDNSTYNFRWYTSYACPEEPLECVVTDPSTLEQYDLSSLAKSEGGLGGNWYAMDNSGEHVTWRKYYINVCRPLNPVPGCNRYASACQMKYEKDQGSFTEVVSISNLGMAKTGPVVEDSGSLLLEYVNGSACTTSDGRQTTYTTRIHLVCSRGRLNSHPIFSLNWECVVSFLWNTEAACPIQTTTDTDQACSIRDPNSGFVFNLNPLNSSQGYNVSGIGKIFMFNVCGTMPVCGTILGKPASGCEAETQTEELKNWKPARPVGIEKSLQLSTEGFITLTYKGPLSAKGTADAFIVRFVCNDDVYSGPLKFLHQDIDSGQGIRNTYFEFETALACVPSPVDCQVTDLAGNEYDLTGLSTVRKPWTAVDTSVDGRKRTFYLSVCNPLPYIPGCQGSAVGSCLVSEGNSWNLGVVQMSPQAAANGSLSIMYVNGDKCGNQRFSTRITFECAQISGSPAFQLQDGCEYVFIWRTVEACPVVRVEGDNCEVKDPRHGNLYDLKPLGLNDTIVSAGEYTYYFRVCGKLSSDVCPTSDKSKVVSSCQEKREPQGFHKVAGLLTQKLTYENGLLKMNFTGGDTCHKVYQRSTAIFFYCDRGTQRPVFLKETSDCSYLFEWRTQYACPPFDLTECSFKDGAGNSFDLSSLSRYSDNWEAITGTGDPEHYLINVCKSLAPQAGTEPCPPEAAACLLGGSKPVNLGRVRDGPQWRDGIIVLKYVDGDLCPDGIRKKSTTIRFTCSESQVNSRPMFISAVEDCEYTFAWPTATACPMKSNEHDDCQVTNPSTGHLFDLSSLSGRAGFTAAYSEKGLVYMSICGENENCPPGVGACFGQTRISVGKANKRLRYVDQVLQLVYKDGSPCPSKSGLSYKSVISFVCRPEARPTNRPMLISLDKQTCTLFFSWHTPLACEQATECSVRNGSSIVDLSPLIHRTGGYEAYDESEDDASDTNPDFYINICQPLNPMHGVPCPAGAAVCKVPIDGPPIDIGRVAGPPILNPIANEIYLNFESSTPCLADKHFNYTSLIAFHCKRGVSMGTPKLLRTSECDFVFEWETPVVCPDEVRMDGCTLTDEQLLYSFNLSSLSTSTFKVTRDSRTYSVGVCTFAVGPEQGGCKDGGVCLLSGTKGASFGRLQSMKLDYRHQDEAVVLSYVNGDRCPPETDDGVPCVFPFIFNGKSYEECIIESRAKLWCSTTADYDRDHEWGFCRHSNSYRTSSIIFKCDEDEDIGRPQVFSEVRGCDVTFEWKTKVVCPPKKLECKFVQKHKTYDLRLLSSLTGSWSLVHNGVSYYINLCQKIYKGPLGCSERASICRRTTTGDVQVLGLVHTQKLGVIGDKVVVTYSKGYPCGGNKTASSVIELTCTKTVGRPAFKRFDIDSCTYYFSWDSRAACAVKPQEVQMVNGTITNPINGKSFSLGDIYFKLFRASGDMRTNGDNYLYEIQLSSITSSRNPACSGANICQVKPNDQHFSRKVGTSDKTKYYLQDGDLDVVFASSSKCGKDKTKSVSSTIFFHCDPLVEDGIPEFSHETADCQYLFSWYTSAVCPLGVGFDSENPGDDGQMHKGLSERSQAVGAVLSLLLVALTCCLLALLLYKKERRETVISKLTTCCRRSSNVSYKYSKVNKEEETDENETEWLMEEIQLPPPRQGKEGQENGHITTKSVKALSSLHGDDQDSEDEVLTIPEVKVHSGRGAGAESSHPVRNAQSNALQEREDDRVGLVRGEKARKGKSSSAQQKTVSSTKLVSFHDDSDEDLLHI
T2 sequence (P11717 1367-1989 limits assumed): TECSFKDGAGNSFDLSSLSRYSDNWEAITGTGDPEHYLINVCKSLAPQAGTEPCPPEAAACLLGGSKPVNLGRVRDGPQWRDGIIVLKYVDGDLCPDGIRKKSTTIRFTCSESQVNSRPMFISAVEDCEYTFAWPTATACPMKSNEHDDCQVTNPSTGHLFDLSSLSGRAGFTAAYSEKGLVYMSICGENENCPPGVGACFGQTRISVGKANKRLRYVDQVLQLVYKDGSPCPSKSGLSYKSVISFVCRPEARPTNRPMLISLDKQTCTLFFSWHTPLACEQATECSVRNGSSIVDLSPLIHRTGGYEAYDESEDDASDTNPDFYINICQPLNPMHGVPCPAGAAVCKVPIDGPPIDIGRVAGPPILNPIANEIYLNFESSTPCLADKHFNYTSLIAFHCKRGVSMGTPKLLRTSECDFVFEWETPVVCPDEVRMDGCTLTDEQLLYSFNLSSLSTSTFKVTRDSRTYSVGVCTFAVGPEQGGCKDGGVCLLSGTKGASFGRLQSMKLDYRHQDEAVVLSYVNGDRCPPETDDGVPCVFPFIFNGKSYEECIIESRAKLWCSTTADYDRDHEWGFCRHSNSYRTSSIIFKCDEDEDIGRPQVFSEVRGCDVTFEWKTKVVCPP

B1: Naglu-Helical-IGF-II (SEQ ID NO: 567) (enzyme)
chain: DEAREAAAVRALVARLLGPGPAADFSVSVERALAAKPGLDTYSLGGGGAARVRVRGSTGVAAAAGLHRYLRDFCGCHVAWSGSQLRLPRPLPAVPGELTEATPNRYRYYQNVCTQSYSFVWWDWARWEREIDWMALNGINLALAWSGQEAIWQRVYLALGLTQAEINEFFTGPAFLAWGRMGNLHTWDGPLPPSWHIKQLYLQHRVLDQMRSFGMTPVLPAFAGHVPEAVTRVFPQVNVTKMGSWGHFNCSYSCSFLLAPEDPIFPIIGSLFLRELIKEFGTDHIYGADTFNEMQPPSSEPSYLAAATTAVYEAMTAVDTEAVWLLQGWLFQHQPQFWGPAQIRAVLGAVPRGRLLVLDLFAESQPVYTRTASFQGQPFIWCMLHNFGGNHGLFGALEAVNGGPEAARLFPNSTMVGTGMAPEGISQNEVVYSLMAELGWRKDPVPDLAAWVTSFAARRYGVSHPDAGAAWRLLLRSVYNCSGEACRGHNRSPLVRRPSLQMNTSIWYNRSDVFEAWRLLLTSAPSLATSPAFRYDLLDLTRQAVQELVSLYYEEARSAYLSKELASLLRAGGVLAYELLPALDEVLASDSRFLLGSWLEQARAAAVSEAEADFYEQNSRYQLTLWGPEGNILDYANKQLAGLVANYYTPRWRLFLEALVDSVAQGIPFQQHQFDKNVFQLEQAFVLSKQRYPSQPRGDTVDLAKKIFLKYYPRWVAGSWGAPGGGSPAEAAAKEAAAKEAAAKEAAAKEAAAKAPSGGGGAPLCGGELVDTLQFVCGDRGFYFSRPASRVSARSRGIVEECCFRSCDLALLETYCATPAKSE
notes: also called Naglu fusion protein
In test [1], B1 gave a Kuptake of 2.3 nM. Further, in test [2], the IC50 is 250 pM.

B2: Naglu-(GGGGS)4GGGPS-IGF-II (SEQ ID NO: 568) (enzyme)
chain: DEAREAAAVRALVARLLGPGPAADFSVSVERALAAKPGLDTYSLGGGGAARVRVRGSTGVAAAAGLHRYLRDFCGCHVAWSGSQLRLPRPLPAVPGELTEATPNRYRYYQNVCTQSYSFVWWDWARWEREIDWMALNGINLALAWSGQEAIWQRVYLALGLTQAEINEFFTGPAFLAWGRMGNLHTWDGPLPPSWHIKQLYLQHRVLDQMRSFGMTPVLPAFAGHVPEAVTRVFPQVNVTKMGSWGHFNCSYSCSFLLAPEDPIFPIIGSLFLRELIKEFGTDHIYGADTFNEMQPPSSEPSYLAAATTAVYEAMTAVDTEAVWLLQGWLFQHQPQFWGPAQIRAVLGAVPRGRLLVLDLFAESQPVYTRTASFQGQPFIWCMLHNFGGNHGLFGALEAVNGGPEAARLFPNSTMVGTGMAPEGISQNEVVYSLMAELGWRKDPVPDLAAWVTSFAARRYGVSHPDAGAAWRLLLRSVYNCSGEACRGHNRSPLVRRPSLQMNTSIWYNRSDVFEAWRLLLTSAPSLATSPAFRYDLLDLTRQAVQELVSLYYEEARSAYLSKELASLLRAGGVLAYELLPALDEVLASDSRFLLGSWLEQARAAAVSEAEADFYEQNSRYQLTLWGPEGNILDYANKQLAGLVANYYTPRWRLFLEALVDSVAQGIPFQQHQFDKNVFQLEQAFVLSKQRYPSQPRGDTVDLAKKIFLKYYPRWVAGSWGGGGSGGGGSGGGGSGGGGSGGGPSLCGGELVDTLQFVCGDRGFYFSRPASRVSARSRGIVEECCFRSCDLALLETYCATPAKSE
notes: The construct encodes full-length Naglu 1-743 with its signal peptide; also called Naglu fusion protein; GILT-tagged Naglu-IGF-II fusion protein
For B2, the Kuptake is 5.4 nM in test [1] and 7 to 9 nM in test [3]. Besides, the IC50 in test [2] was 270 pM and 230 pM.

B3: Naglu-(GGGGA)4GGGPS-IGF-II (SEQ ID NO: 569) (enzyme)
chain: DEAREAAAVRALVARLLGPGPAADFSVSVERALAAKPGLDTYSLGGGGAARVRVRGSTGVAAAAGLHRYLRDFCGCHVAWSGSQLRLPRPLPAVPGELTEATPNRYRYYQNVCTQSYSFVWWDWARWEREIDWMALNGINLALAWSGQEAIWQRVYLALGLTQAEINEFFTGPAFLAWGRMGNLHTWDGPLPPSWHIKQLYLQHRVLDQMRSFGMTPVLPAFAGHVPEAVTRVFPQVNVTKMGSWGHFNCSYSCSFLLAPEDPIFPIIGSLFLRELIKEFGTDHIYGADTFNEMQPPSSEPSYLAAATTAVYEAMTAVDTEAVWLLQGWLFQHQPQFWGPAQIRAVLGAVPRGRLLVLDLFAESQPVYTRTASFQGQPFIWCMLHNFGGNHGLFGALEAVNGGPEAARLFPNSTMVGTGMAPEGISQNEVVYSLMAELGWRKDPVPDLAAWVTSFAARRYGVSHPDAGAAWRLLLRSVYNCSGEACRGHNRSPLVRRPSLQMNTSIWYNRSDVFEAWRLLLTSAPSLATSPAFRYDLLDLTRQAVQELVSLYYEEARSAYLSKELASLLRAGGVLAYELLPALDEVLASDSRFLLGSWLEQARAAAVSEAEADFYEQNSRYQLTLWGPEGNILDYANKQLAGLVANYYTPRWRLFLEALVDSVAQGIPFQQHQFDKNVFQLEQAFVLSKQRYPSQPRGDTVDLAKKIFLKYYPRWVAGSWGGGGAGGGGAGGGGAGGGGAGGGPSLCGGELVDTLQFVCGDRGFYFSRPASRVSARSRGIVEECCFRSCDLALLETYCATPAKSE
notes: as for B1
Molecule B3 returned a Kuptake in test [1] of 6.3 nM. In test [2], this molecule returned an IC50 of 360 pM.

B4: Naglu-XTEN-IGF-II (SEQ ID NO: 565) (enzyme)
chain: DEAREAAAVRALVARLLGPGPAADFSVSVERALAAKPGLDTYSLGGGGAARVRVRGSTGVAAAAGLHRYLRDFCGCHVAWSGSQLRLPRPLPAVPGELTEATPNRYRYYQNVCTQSYSFVWWDWARWEREIDWMALNGINLALAWSGQEAIWQRVYLALGLTQAEINEFFTGPAFLAWGRMGNLHTWDGPLPPSWHIKQLYLQHRVLDQMRSFGMTPVLPAFAGHVPEAVTRVFPQVNVTKMGSWGHFNCSYSCSFLLAPEDPIFPIIGSLFLRELIKEFGTDHIYGADTFNEMQPPSSEPSYLAAATTAVYEAMTAVDTEAVWLLQGWLFQHQPQFWGPAQIRAVLGAVPRGRLLVLDLFAESQPVYTRTASFQGQPFIWCMLHNFGGNHGLFGALEAVNGGPEAARLFPNSTMVGTGMAPEGISQNEVVYSLMAELGWRKDPVPDLAAWVTSFAARRYGVSHPDAGAAWRLLLRSVYNCSGEACRGHNRSPLVRRPSLQMNTSIWYNRSDVFEAWRLLLTSAPSLATSPAFRYDLLDLTRQAVQELVSLYYEEARSAYLSKELASLLRAGGVLAYELLPALDEVLASDSRFLLGSWLEQARAAAVSEAEADFYEQNSRYQLTLWGPEGNILDYANKQLAGLVANYYTPRWRLFLEALVDSVAQGIPFQQHQFDKNVFQLEQAFVLSKQRYPSQPRGDTVDLAKKIFLKYYPRWVAGSWGAPGGSPAGSPTSTEEGTSESATPESGPGTSTEPSEGSAPGSPAGSPTSTGPSGAPLCGGELVDTLQFVCGDRGFYFSRPASRVSARSRGIVEECCFRSCDLALLETYCATPAKSE
notes: as for B1
In test [1], B4 came in with a Kuptake of 3.7 nM. For the same molecule, the IC50 in test [2] is 240 pM.

B5: Naglu-Rigid-IGF-II (SEQ ID NO: 566) (enzyme)
chain: DEAREAAAVRALVARLLGPGPAADFSVSVERALAAKPGLDTYSLGGGGAARVRVRGSTGVAAAAGLHRYLRDFCGCHVAWSGSQLRLPRPLPAVPGELTEATPNRYRYYQNVCTQSYSFVWWDWARWEREIDWMALNGINLALAWSGQEAIWQRVYLALGLTQAEINEFFTGPAFLAWGRMGNLHTWDGPLPPSWHIKQLYLQHRVLDQMRSFGMTPVLPAFAGHVPEAVTRVFPQVNVTKMGSWGHFNCSYSCSFLLAPEDPIFPIIGSLFLRELIKEFGTDHIYGADTFNEMQPPSSEPSYLAAATTAVYEAMTAVDTEAVWLLQGWLFQHQPQFWGPAQIRAVLGAVPRGRLLVLDLFAESQPVYTRTASFQGQPFIWCMLHNFGGNHGLFGALEAVNGGPEAARLFPNSTMVGTGMAPEGISQNEVVYSLMAELGWRKDPVPDLAAWVTSFAARRYGVSHPDAGAAWRLLLRSVYNCSGEACRGHNRSPLVRRPSLQMNTSIWYNRSDVFEAWRLLLTSAPSLATSPAFRYDLLDLTRQAVQELVSLYYEEARSAYLSKELASLLRAGGVLAYELLPALDEVLASDSRFLLGSWLEQARAAAVSEAEADFYEQNSRYQLTLWGPEGNILDYANKQLAGLVANYYTPRWRLFLEALVDSVAQGIPFQQHQFDKNVFQLEQAFVLSKQRYPSQPRGDTVDLAKKIFLKYYPRWVAGSWGAPGGGSPAPAPTPAPAPTPAPAGGGPSGAPLCGGELVDTLQFVCGDRGFYFSRPASRVSARSRGIVEECCFRSCDLALLETYCATPAKSE
notes: as for B1
In test [1], B5 came in with a Kuptake of 2.4 nM. Besides, in test [2], the IC50 was 230 pM.

As a reminder, the IC50 is the point on the concentration scale where inhibition reaches its midpoint. High values mean a need for much substance, low ones inhibition by little substance.
